Data set [1] deals with Wnt3A (conditioned medium from L/Wnt3A cells, ATCC CRL-2647) (UniProt P27467). In words: cell-based or functional assay. Also on record: unit not given beside the values.
In the next data set the target is T1, Notum (Homo sapiens, UniProt Q6P988).
T1 sequence (Q6P988 20-496): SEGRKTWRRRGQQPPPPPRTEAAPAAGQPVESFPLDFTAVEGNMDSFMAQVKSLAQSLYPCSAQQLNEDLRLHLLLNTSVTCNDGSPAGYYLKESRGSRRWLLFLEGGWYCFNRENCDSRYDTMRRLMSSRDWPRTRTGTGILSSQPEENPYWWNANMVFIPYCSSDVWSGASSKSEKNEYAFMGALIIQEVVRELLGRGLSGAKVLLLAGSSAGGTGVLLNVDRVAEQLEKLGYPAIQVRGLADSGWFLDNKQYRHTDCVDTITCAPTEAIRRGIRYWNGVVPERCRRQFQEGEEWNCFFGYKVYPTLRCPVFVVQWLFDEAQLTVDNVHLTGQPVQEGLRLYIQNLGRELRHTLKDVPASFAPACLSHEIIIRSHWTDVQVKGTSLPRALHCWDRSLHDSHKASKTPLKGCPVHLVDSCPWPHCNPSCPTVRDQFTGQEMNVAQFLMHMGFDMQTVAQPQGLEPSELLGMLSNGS
Put plainly: 4-MUH assay, small molecule inhibition of Notum. Format: biochemical. The following applies: 4-MUH 240 μM or 90 μM; orlistat 0-170 μM. As for the experimental part:
(§1) In addition to the assays described in Examples 23 and 24, a fluorescent esterase substrate, 4-methylumbelliferyl heptanoate (Sigma), can be used to measure the activity of hydrolases using standard assay conditions (Richardson and Smith, 2007, PMID: 17620441; Jacks and Kircher, 1967, PMID: 5582971). Briefly, 4-MUH was dissolved in DMSO to a final concentration of 1.2 mM. This substrate was diluted 1:10 into assay buffer (0.1M Tris, pH 7.5, 50 mM NaCl, 0.05% Brij) and incubated with defined amounts of Notum enzyme or point-mutated Notum enzymes, and enzymatic release of the fluorescent molecule 4-methylumbelliferone monitored (355 nm excitation, 460 nm emission) using a Wallac Victor3 Multilabel Counter (Perkin Elmer).
Consistent with a putative hydrolase activity for Notum, it could be hypothesized that this inactivation is related to the ability of Notum to delipidate Wnt3A. Two lipids are known to be linked to Wnt3A, a saturated palmitate chain at Cys77 and an unsaturated palmitoleoylic chain at S209 (Lorenowicz and Korswagen, 2009, PMID: 19559695). […] Therefore, the 4-MUH assay described in example 25 was performed in the presence of varying amounts of 4-MUH substrate (240 μM or 90 μM) and orlistat (0-170 μM).

Data set [2] has as its system luciferase transcription in the 293.TCF cells. Put plainly: Luciferase reporter activation in 293.TCF cells. Format: cell-based, human. The following applies: 40 mM. An excerpt:
To generate a stable population of cells that contain a reporter for the activation of canonical Wnt signaling, HEK 293T cells were transduced with a lentiviral vector, pGreenFirel-TCF (System Biosciences) which encodes a bifunctional GFP and luciferase reporter cassette under the control of a minimal CMV reporter linked to four tandem repeats of the transcriptional response elements for TCF. Transduced cells populations, termed 293.TCF cells, were subsequently used in a Wnt3A canonical signaling assay as follows: 2.5×10^4 293.TCF cells were plated per well of a 96-well tissue culture plate in 50 μL of serum-free DME medium. After 24 hours of serum starvation, 25 μL of various dilutions of conditioned medium (CM) from L/Wnt3A cells (ATCC CRL-2647; Willert, 2003) or undiluted CM from parental L-cells (ATCC CRL-2648) along with 25 μL of DMEM+0.2% FBS were added to each well. […] The contents of each well were then mixed thoroughly to lyse the cells, 100 μL of lysate transferred to black 96-well plates, and the luminescence in each well read after 5 mins using a Wallac Victor3 Multilabel Counter (Perkin-Elmer Corp). […] More particularly, as the Wnt3A+ CM media is diluted from 25% down to approximately 3%, activation of the Wnt pathway is reduced with a corresponding decrease in luminescence.
On the technique in general: Reporter assays use an easily measured gene product as a stand-in for the process of interest.

The subject of data set [3] is Wnt3A-mediated induction of luciferase in the 293.TCF cells. In words: Wnt3A canonical signaling assay, bioactivity of Notum constructs. It is filed as cell-based, human. The text has this:
To generate a stable population of cells that contain a reporter for the activation of canonical Wnt signaling, HEK 293T cells were transduced with a lentiviral vector, pGreenFirel-TCF (System Biosciences) which encodes a bifunctional GFP and luciferase reporter cassette under the control of a minimal CMV reporter linked to four tandem repeats of the transcriptional response elements for TCF. Transduced cells populations, termed 293.TCF cells, were subsequently used in a Wnt3A canonical signaling assay as follows: 2.5×10^4 293.TCF cells were plated per well of a 96-well tissue culture plate in 50 μL of serum-free DME medium. After 24 hours of serum starvation, 25 μL of various dilutions of conditioned medium (CM) from L/Wnt3A cells (ATCC CRL-2647; Willert, 2003) or undiluted CM from parental L-cells (ATCC CRL-2648) along with 25 μL of DMEM+0.2% FBS were added to each well. Eighteen hours after addition of CM, 100 μL of One-Glo solution (ProMega Corp.) was added to each well. The contents of each well were then mixed thoroughly to lyse the cells, 100 μL of lysate transferred to black 96-well plates, and the luminescence in each well read after 5 mins using a Wallac Victor3 Multilabel Counter (Perkin-Elmer Corp). […] More particularly, as the Wnt3A+ CM media is diluted from 25% down to approximately 3%, activation of the Wnt pathway is reduced with a corresponding decrease in luminescence.
Once the luciferase reporter system was established, assays for determining the bioactivity of various Notum modulators were performed as follows. 2.5×10^4 293.TCF cells were plated per well of a 96-well tissue culture plate in 50 μL of serum-free medium. After 23 hours of serum starvation, 25 μL of DMEM+0.2% FBS containing various Notum modulators at various concentrations (e.g., hNotum-His, hNotum-hFc, hNotum-S232A-His, murine Notum-His, murine Notum-hFc, macaque Notum-hFc, control protein-His or control protein-hFc obtained as per Examples 7, 8 and 13 above), were added to the cells. After 1 hour, 25 μL of Wnt3A or control L-cell CM were added to each well. Eighteen hours after addition of CM, 100 μL of One-Glo solution (ProMega Corp.) was added to each well, the contents of each well mixed thoroughly to lyse the cells, 100 μL of lysate transferred to black 96-well plates, and the luminescence read after 5 minutes.

The test system of data set [4] is mouse lineage-depleted NTX tumor cells from SCRx-CR42. In words: Cell survival/proliferation, CellTiterGlo, SCRx-CR42. It is filed as cell-based, human. The following applies: 10 μg/mL, 14 days. As for the experimental part: (§2) To determine whether Notum protein impacts cell proliferation and/or apoptosis of human colorectal cancer cells, HCT-116 cells or mouse lineage-depleted NTX tumor cells (i.e. human tumor cells) were plated as described below and exposed to recombinant hNotum (e.g. hNotum-His or hNotum-hFc) and anti-Notum antibodies. Cell numbers were then assessed 12-14 days later.
(§3) Cells were then incubated for 14 days at 37° C., 5% CO2 and 5% O2 and the number of viable cells was assessed using Promega's CellTiterGlo assay kit per the manufacturer's instructions. For the HCT-116 cell line (a commercially available colorectal tumor cell line), cells were plated at 2,000 cells per well in DMEM+1% FBS, followed 24-hours later by the addition of serum free DMEM containing recombinant human Notum in the presence or absence of monoclonal antibodies SC2.D2.2 or SC2.10B3. HCT-116 cells were then incubated for 12 days at 37° C., 5% CO2 and cell viability was assessed with Promega's CellTiterGlo assay kit. Higher readings are indicative of higher viable cell counts.
On the technique in general: In ATP-based viability assays light output follows the ATP content of the culture.

The next data set relates to HCT-116 cells. In words: Cell survival/proliferation, CellTiterGlo, HCT-116. The settings on record: 10 μg/mL, 12 days. Format: cell-based, human. On the procedure: as §2, §3
Data set [5] can be described thus: Lipase activity of hNotum, turbidometric Tween 20 lipolysis. Format: biochemical. As for the experimental part:
Briefly, recombinant hNotum (1 μg/well) was added to an assay buffer containing 50 mM Tris, pH 7.4, 33.3 mM CaCl2, and 0.33% Tween-20. When the Tween 20 monolauryl group is cleaved by lipases (e.g. hNotum), the free fatty acid forms an insoluble complex with the Ca^2+ cations resulting in a turbid solution, the OD of which can be measured at 405 nm to provide a measure of lipase activity. As a positive control, the activity of porcine pancreatic lipase (Sigma Aldrich) was measured in the same assay.

A short description of data set [6]: 4-MUH fluorescent hydrolase assay, activity of Notum constructs. It is filed as biochemical. On the procedure:
as §1

Data set [7] can be described thus: Esterase activity of Notum proteins on chromogenic substrates. It is filed as biochemical. The following applies: 1 hour at 37° C. As for the experimental part:
Briefly, PNPA or PNPB were dissolved/diluted in isopropanol to final concentrations of 10 mM. These substrate solutions were diluted 1:10 into assay buffer (0.1% gum arabic, 2.3 mg/mL sodium dexoycholate, 1×PBS) and incubated with defined amounts of hNotum enzyme, and the enzymatic release of the chromophore p-nitrophenol monitored by absorbance measurements at 405 nm.

Substitutions are numbered along the chain they refer to. Names and notes keep the numbering of the source. Where two headings read alike, the source gives them in different places.

Sequence of Wnt3A (conditioned medium from L/Wnt3A cells, ATCC CRL-2647) (P27467 19-352 limits assumed): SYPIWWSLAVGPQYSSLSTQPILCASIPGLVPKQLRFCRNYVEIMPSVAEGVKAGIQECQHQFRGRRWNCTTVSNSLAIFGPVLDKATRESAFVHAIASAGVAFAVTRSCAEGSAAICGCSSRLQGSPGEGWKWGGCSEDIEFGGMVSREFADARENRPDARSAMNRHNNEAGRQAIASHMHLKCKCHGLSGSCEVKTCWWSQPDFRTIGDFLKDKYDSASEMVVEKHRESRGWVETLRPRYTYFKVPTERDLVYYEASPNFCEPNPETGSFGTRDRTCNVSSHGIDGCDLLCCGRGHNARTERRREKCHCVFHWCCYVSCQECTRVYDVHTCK

Regarding “hNotum-Fc (human Notum fused to human IgG2 Fc) (Fc fusion)”, in data set [1], the IC50 of the decrease in luciferase activity (293.TCF Wnt3A assay) is 0.47.

As to `CCCCCCCCCCC[C@@H](C[C@@H]1OC(=O)[C@H]1CCCCCC)OC(=O)[C@H](CC(C)C)NC=O` [orlistat], on Notum, the “inhibition of hydrolysis activity of Notum upon 4MUH” value was “inhibits the hydrolysis activity of Notum upon 4MUH in a dose-dependent fashion”.

For `[Cl-].[Li+]` [LiCl], the “activation of luciferase transcription” value in data set [2] was “activate luciferase transcription”.

B1: hNotum-His: recombinant His tagged human Notum protein (protein)
chain: T1 sequence (Q6P988 20-496)
modifications: left off: small tags and cut ends
notes: recombinant His tagged human Notum protein
On to B1, for which the “antagonism of Wnt3A-mediated induction of luciferase” value (from here on “antagonism”) in data set [3] is “functionally antagonize”. In addition, in data set [4], the “increase in cell counts” value is reported as 20-45%.

B2: hNotum: recombinant human Notum protein (e.g. hNotum-His or hNotum-hFc) (protein)
chain: T1 sequence (Q6P988 20-496)
B2: in the data set on HCT-116 cells, the “increase in cell numbers” value is on record as “more than 2 fold”. The “antagonism” value is reported as “antagonizes Wnt3A CM” in [3] and “can inhibit the response of the 293.TCF cells to Wnt3A in a dose-dependent fashion” in data set [3] (listed as wild-type human Notum). Moreover, the lipase activity entry in [5] was “capable of cleaving Tween 20 in a dose dependent fashion”. Further, in data set [6], the “hydrolysis of the 4-MUH substrate” value is reported as “capable of hydrolyzing the 4-MUH substrate”. Also, in data set [7], the esterase activity result is recorded as “has carboxyesterase activity”.

B3: human-NOTUM S232A mutant: human Notum with S232A point mutation of the putative catalytic nucleophile (His and hFc) (protein, UniProt Q6P988 20-496, looked up, variant S232A)
Palmitoleoyl-protein …: T1 sequence (Q6P988 20-496) with S213A
modifications: His tag or human Fc
On to B3, for which the “antagonism” value in data set [3] is “did not antagonize”; in data set [3] (listed as S232A), “no ability to antagonize”. In data set [6], the “hydrolysis of the 4-MUH substrate” value is recorded as “no ability to hydrolyze the 4-MUH substrate”. In addition, in [7], the esterase activity entry is “greatly reduced esterase activity”.

The values above are taken from US20130224191A1, “NOTUM PROTEIN MODULATORS AND METHODS OF USE” (priority 2010, published 2013).
